Measurements taken from publication PMC6220267 (2018).

Legend:
Assay in all cases: BLI
Aβ42 oligomers (soluble) [1] = biological target: T1, Aβ42 oligomers (soluble) (UniProt P05067 672-713)
Aβ42 oligomers (soluble) [2] = biological target: T1, Aβ42 oligomers (soluble); remark: listed apart in the source
Aβ42 monomers = Aβ42 monomers (UniProt P05067 672-713)
Aβ40 monomers = Aβ40 monomers (UniProt P05067 672-711)

B1: soluble mouse Trem2‐Fc (soluble ectodomain) (Fc fusion)
chain: LNTTVLQGMAGQSLRVSCTYDALKHWGRRKAWCRQLGEEGPCQRVVSTHGVWLLAFLKKRNGSTVIADDTLAGTVTITLKNLQAGDAGLYQCQSLRGREAEVLQKVLVEVLEDPLDDQDAGDLWVPEESSSFEGAQVEHSTSRNQETSFPPTS
Question: Which Kd (Aβ42 oligomers (soluble) [1]) does the source give for B1 here?
Answer: Its Kd is 1 pM.

Question: And the koff (Aβ42 oligomers (soluble) [2])?
Answer: Its koff is 1e-07 s⁻¹.

B2: soluble mouse Treml1‐Fc (soluble ectodomain) (Fc fusion)
chain: DSHPEVLQAPVGSSILVQCHYRLQDVRALKVWCQFLQEGCHPLVTSAVDRRAPGNGRIFLTDLGGGLLQVEMVTLQEEDTGEYGCVVEGAAGPQTLHRVSLLVLPPVPGPREGEEAEDEKETYRIGTGSLLEDPSLDPSASAGPHEFRRRENSIP
Question: For B2, which Kd (Aβ42 oligomers (soluble) [1]) is on record?
Answer: The Kd was 1 pM.

Question: What about the koff (Aβ42 oligomers (soluble) [2]) of the same binder?
Answer: The koff was 1e-07 s⁻¹.

B3: soluble TREM2‐Fc (soluble ectodomain of human TREM2 fused to the Fc domain of human IgG4, V5 epitope) (Fc fusion)
chain: HNTTVFQGVAGQSLQVSCPYDSMKHWGRRKAWCRQLGEKGPCQRVVSTHNLWLLSFLRRWNGSTAITDDTLGGTLTITLRNLQPHDAGLYQCQSLHGSEADTLRKVLVEVLADPLDHRDAGDLWFPGESESFEDAHVEHSISRSLLEGEIPFPPTS
Question: B3 was tested. Which Kd (Aβ42 monomers) did it give?
Answer: The Kd was 290000 pM.

Question: And the Kd (Aβ40 monomers)?
Answer: The Kd was 140000 pM.

B4: soluble TREML1‐Fc (human, soluble ectodomain) (Fc fusion)
chain: QGIVGSLPEVLQAPVGSSILVQCHYRLQDVKAQKVWCRFLPEGCQPLVSSAVDRRAPAGRRTFLTDLGGGLLQVEMVTLQEEDAGEYGCMVDGARGPQILHRVSLNILPPEEEEETHKIGSLAENAFSDPAGSANPLEPSQDEKSIP
Question: What does the source list for B4?
Answer: Kd (Aβ42 oligomers (soluble) [1]): 1 pM; koff (Aβ42 oligomers (soluble) [2]): 1e-07 s⁻¹
